Laboratory results from US20170044236A1 (GENERAL HOSPITAL, published 2017).
Substitutions are numbered along the chain they refer to.

T1: αVβ3(N339/S) on HEK293T cells (human, UniProt P06756 31-1048; P05106 27-788)
T1 construct: also called αVβ3^N/S; active αVβ3(N339/S)
T1 chain 1: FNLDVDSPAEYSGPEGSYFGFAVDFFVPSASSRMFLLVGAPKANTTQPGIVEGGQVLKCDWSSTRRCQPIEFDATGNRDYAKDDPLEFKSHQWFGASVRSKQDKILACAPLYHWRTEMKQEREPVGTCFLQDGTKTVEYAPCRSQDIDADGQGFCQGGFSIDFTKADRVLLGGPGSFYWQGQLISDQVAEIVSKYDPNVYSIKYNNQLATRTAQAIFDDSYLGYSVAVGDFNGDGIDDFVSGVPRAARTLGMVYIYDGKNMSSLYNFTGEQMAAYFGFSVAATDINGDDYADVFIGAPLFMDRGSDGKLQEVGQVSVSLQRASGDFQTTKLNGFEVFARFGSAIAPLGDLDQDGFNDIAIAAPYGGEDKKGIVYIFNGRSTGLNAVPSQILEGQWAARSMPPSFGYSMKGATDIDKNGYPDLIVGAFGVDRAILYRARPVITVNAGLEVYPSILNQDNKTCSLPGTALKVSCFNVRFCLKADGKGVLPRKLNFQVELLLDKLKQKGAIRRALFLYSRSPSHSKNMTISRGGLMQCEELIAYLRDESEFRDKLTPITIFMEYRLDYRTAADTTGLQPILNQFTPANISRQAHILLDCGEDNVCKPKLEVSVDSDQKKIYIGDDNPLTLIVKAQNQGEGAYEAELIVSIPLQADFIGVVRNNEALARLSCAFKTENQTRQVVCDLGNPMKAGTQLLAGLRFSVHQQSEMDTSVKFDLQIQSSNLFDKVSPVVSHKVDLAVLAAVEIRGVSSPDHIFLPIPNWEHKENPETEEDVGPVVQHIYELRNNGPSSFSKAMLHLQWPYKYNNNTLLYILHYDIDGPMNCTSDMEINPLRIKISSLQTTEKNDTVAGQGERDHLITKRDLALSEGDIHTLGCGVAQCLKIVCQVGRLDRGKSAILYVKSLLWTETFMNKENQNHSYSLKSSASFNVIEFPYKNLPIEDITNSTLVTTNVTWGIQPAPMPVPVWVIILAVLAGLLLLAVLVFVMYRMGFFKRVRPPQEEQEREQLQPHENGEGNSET
T1 chain 2: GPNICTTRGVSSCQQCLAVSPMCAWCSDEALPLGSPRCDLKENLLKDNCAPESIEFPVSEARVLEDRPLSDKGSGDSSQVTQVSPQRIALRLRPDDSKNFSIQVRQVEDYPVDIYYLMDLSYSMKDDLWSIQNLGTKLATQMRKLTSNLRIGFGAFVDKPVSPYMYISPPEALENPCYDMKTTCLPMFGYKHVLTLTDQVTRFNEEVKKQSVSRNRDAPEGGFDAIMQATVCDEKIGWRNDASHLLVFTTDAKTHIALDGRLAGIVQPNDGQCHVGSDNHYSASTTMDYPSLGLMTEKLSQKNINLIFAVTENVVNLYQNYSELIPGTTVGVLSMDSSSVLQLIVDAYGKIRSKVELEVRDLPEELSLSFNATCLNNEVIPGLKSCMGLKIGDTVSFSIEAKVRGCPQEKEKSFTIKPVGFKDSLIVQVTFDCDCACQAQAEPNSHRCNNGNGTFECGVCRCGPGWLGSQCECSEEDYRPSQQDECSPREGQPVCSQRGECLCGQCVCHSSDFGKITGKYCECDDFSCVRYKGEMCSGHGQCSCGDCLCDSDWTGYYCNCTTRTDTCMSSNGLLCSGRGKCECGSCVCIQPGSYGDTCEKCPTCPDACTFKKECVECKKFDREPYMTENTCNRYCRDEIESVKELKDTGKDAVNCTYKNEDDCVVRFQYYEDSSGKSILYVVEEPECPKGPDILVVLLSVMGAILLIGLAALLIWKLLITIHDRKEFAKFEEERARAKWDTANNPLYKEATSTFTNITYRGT

T2: wild-type integrin αVβ3 on cells (K562-αVβ3, M21, HEK293T) (human, UniProt P06756 31-1048; P05106 27-788)
T2 construct: also called WT αVβ3; cellular αVβ3
T2 chain 1: T1 chain 1
T2 chain 2: T1 chain 2 with S339N

B1: hFN10-G (designed binder)
chain: SDVPRDLEVVAATPTSLLISWDAPAVTVRYYRITYGETGGNSPVQEFTVPGSKSTATISGLKPGVDYTITVYAVTPGRGDWNEGSKPISINY
notes: Fluorescein-tagged in the assay; also called mhFN10
B2: wild-type 10th type-III RGD-domain of human fibronectin (wtFN10) (ligand)
chain: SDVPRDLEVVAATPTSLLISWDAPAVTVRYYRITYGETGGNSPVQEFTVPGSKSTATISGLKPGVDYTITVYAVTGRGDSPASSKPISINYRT
notes: Expressed in bacteria with an N-terminal His tag (S1417-T1509) and a thrombin cleavage site; also called wild-type FN10

Assays:
[1] = target: T1, αVβ3(N339/S) on HEK293T cells; test: flow cytometry, fluorescein-tagged hFN10-G on cells
[2] = target: T2, wild-type integrin αVβ3 on cells …; test: flow cytometry, fluoresceinated fluid-phase FN10 on K562-αVβ3 cells
[3] = target: T1, αVβ3(N339/S) on HEK293T cells; test: flow cytometry, fluoresceinated fluid-phase FN10 on transfected HEK293T cells, Ca2+/Mg2+

Binder | binding result [1] | fold increase of binding (Mn2+ over Ca2+/Mg2+) [2] [fold] | fold increase of binding (N339/S over wild-type αVβ3) [3] [fold]
B1 | no binding | – | –
B2 | – | 10 | 6
